The source of these data is patent US20130012436A1 (Bristol-Myers Squibb, published 2013).

One assay concerns the target T1, human IL-12 (human, UniProt P29459 23-219; P29460 23-328).
T1 construct: heterodimeric cytokine; also called recombinant human IL-12
T1 sequence (looked up) 1: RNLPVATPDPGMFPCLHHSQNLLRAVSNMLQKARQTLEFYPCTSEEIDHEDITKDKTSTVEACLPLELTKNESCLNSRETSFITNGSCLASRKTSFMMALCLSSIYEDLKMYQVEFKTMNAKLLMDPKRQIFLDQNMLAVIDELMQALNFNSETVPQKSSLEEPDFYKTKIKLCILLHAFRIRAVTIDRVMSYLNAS
T1 sequence (looked up) 2: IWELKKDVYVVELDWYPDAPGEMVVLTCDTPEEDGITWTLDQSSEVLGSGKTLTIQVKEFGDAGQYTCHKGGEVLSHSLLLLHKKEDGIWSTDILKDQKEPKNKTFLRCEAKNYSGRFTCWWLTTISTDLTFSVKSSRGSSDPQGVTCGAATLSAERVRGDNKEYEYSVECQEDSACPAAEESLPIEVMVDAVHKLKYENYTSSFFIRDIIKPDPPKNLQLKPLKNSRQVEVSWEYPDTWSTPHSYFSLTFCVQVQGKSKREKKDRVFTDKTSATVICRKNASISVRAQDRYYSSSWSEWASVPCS
In words: SPR, Adnectin captured on immobilized anti-His antibody. How it is done: Adnectins listed in Table 2 as well as ATI001016 were used to examine the biochemical selectivity towards IL-23/IL-12. The binding analysis involved the capture of anti-IL-23 Adnectins on immobilized anti-His antibody followed by flow of IL-23 or IL-12 over the Adnectin. The selectivity of the Adnectins for IL-23 was assessed by comparing the binding signal for a 100 fold higher concentration of IL-12 over IL-23.

In assay [1] the target is T2, human IL-23 (human, UniProt Q9NPF7 20-189; P29460 23-328).
T2 construct: also called hIL-23; human recombinant IL-23
T2 sequence (looked up) 1: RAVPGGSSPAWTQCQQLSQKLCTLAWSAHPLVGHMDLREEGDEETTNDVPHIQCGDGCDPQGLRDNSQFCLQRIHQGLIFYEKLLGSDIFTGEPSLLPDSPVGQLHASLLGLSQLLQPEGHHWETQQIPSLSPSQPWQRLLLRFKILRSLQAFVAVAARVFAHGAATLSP
T2 sequence (looked up) 2: T1 sequence (looked up) 2
In words: SPR (ProteOn XPR), human IL-23 directly immobilized, 25 C. How it is done:
(§1) The binding characteristics were characterized by Surface Plasmon Resonance (SPR). Human IL-23 was immobilized at two to four levels in one dimension of a ProteOn XPR (Bio-Rad) chip surfaces and exposed to 6 different concentrations of anti-IL-23 adnectins in the other dimension of the same SPR chip surface. This allowed kinetic determination in the absence of regeneration. Duplicate chips were used for kinetic determinations at 25° C. and 37° C. Evaluation of the kinetic parameters was performed using the Langmuir interaction model and constant parameter fitting with the ProteOn Manager software.
(§2) Even at 37° C. the off rates were close to the limit of detection for SPR technologies so it is possible that the reported dissociation constant measurements are under-estimates.

Assay [2] addresses T2, human IL-23. In words: KinExA, solution phase, adnectin titrated, unbound IL-23 captured on non-PEGylated ATI001045 matrix. The method, then: The solution affinity of ATI001045 and ATI001047 for human IL-23 was also measured using an alternate format in the KinExA. Duplicate titrations of adnectins were performed for each of three (ATI001045) or single (ATI001047) concentrations of human IL-23 (quadruplicate for the lowest concentration). The relative unbound human IL-23 concentration was measured by capture on a non-PEGylated ATI001045 solid matrix followed by detection with a fluorescently labeled antibody that recognizes the p40 subunit of hIL-23.
In general terms: In KinExA the mixture passes briefly over coated beads that capture the unbound partner.

Assay [3] deals with T2, human IL-23. Briefly: cell-based or functional assay.
Assay [4] concerns the target T2, human IL-23. Briefly: SPR (ProteOn XPR), human IL-23 directly immobilized, 37 C. The method, then: as §1, §2
Assay [5] deals with T2, human IL-23. In words: KinExA, solution phase, hIL-23 titrated, unbound ATI001045 captured on IL-23 matrix. The method, then: The solution affinity of ATI001045 for human IL-23 was measured using a Kinetic Exclusion Assay (KinExA). In one format duplicate titrations of hIL-23 were performed for each of three concentrations. The relative unbound ATI001045 concentration was measured by capture on a human IL-23 solid matrix followed by detection with a fluorescently labeled antibody that recognizes the Adnectin scaffold. Due to technical limitations, the lowest concentration that could be tested was 0.75 nM.

Assay [6] addresses T3, human serum albumin (human, UniProt P02768 25-609).
T3 construct: also called HSA
In words: SPR, MES buffer, pH 7.4.

Assay [7] concerns the target T4, rhesus serum albumin (rhesus, UniProt Q28522 17-600).
T4 construct: also called RhSA
In words: SPR, MES buffer, pH 7.4. A general note: In SPR one partner is held on a chip, and binding of the other changes the refractive index at the surface.

The next assay has as its target rat serum albumin (rat, UniProt P02770 25-608). Briefly: SPR and direct binding ELISA. For orientation: An ELISA detects its analyte on a solid surface through an enzyme-linked reagent.
The target of assay [8] is T3, human serum albumin. In words: SPR, MES buffer, pH 5.5.
The target in assay [9] is T4, rhesus serum albumin. In words: SPR, MES buffer, pH 5.5.
Assay [10] deals with T3, human serum albumin. In words: SPR, HBS-P buffer, 37 C.
For assay [11], the target named is T4, rhesus serum albumin. Briefly: SPR, HBS-P buffer, 37 C.
Assay [12] has as its target T3, human serum albumin. In words: SPR, HBS-P buffer, 25 C.
For assay [13], the target named is T4, rhesus serum albumin. Briefly: SPR, HBS-P buffer, 25 C.
The target in the next assay is T5, murine serum albumin (mouse, UniProt P07724 25-608).
T5 construct: also called MuSA; mouse serum albumin
Briefly: SPR, HBS-P buffer, 25 C.

For assay [14], the target named is T3, human serum albumin. In words: SPR, HBS-P buffer.
The target of assay [15] is T4, rhesus serum albumin. Briefly: SPR, HBS-P buffer.

Numbering of substitutions follows the chain as printed.

T4 sequence (Q28522 17-600 limits assumed): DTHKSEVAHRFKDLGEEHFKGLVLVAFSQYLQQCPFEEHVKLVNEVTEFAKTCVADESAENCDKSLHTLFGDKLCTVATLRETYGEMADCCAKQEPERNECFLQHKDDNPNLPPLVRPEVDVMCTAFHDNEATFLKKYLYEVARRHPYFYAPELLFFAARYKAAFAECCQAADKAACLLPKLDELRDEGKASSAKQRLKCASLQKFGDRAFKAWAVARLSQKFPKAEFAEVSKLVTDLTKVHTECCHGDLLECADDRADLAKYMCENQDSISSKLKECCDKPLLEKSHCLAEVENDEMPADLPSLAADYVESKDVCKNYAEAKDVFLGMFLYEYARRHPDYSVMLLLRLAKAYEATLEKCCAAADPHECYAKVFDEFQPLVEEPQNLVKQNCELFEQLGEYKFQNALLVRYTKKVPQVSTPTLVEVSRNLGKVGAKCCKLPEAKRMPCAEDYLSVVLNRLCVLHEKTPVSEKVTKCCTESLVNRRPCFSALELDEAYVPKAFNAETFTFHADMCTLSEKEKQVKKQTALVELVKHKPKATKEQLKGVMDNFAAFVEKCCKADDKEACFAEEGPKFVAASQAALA
T3 sequence (P02768 25-609 limits assumed): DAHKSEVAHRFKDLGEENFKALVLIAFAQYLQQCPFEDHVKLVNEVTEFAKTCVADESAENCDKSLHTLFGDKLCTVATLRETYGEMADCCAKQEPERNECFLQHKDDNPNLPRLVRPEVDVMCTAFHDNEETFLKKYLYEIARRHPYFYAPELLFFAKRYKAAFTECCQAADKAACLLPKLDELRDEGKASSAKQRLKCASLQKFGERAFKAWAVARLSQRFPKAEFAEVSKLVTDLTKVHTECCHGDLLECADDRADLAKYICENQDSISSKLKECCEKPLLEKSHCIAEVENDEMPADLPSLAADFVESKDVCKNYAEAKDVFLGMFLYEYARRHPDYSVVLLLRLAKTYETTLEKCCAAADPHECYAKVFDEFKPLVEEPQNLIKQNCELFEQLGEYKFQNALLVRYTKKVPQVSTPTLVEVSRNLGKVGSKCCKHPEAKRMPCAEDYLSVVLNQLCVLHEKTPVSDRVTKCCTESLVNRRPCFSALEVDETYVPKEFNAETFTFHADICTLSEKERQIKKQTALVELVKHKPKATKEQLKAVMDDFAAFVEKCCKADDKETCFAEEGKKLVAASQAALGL
Sequence of rat serum albumin (P02770 25-608 limits assumed): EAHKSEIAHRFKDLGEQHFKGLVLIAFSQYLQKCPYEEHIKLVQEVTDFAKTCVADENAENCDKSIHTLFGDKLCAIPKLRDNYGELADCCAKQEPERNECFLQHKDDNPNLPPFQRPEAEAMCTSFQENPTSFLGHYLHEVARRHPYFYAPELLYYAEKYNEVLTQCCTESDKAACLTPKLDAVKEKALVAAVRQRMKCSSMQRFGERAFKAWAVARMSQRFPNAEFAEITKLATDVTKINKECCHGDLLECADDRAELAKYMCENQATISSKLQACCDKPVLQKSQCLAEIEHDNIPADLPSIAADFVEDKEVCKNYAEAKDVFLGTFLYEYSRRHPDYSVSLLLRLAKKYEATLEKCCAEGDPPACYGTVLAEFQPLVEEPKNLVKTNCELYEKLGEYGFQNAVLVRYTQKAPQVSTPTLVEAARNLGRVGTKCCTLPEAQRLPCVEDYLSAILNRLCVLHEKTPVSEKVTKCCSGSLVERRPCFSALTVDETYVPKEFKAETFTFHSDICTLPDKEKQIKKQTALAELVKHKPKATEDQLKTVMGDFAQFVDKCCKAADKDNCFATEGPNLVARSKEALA

B1: ATI001016 (designed binder)
chain: MGVSDVPRDLEVVAATPTSLLISWGHYPLHVRYYRITYGETGGNSPVQEFTVPSRKYTATISGLKPGVDYTITVYAVTYYKEANYREIPISINYRTGSGC
modifications: pegylated at the C-terminal GSGC linker (Cys)
notes: not shown: his-tag
With B1, the binding result with human IL-12 is recorded as “no binding (tested: 1 µM)”.

B2: ATI001047 (designed binder)
chain: B1 chain with S54P, K56S, Y57H, K81A, E82Q, A83E, R86K
modifications: pegylated at the C-terminal GSGC linker (Cys)
One may read the Kd as a measure of binding affinity in units of concentration. Read a low Kd as a tighter complex. Usually koff stands for the first-order rate constant of dissociation. Lower therefore signals slow dissociation. One may read the kon as the rate constant with which the complex forms. In the assay with human IL-23 [1], B2 had a Kd of 1.6 nM, a koff of 2e-05 s⁻¹ and a kon of 13000 M⁻¹ s⁻¹. In addition, in the assay with human IL-23 [2], the Kd came out at 0.0363 nM.

B3: ATI001045 (designed binder)
chain: B1 chain
modifications: pegylated at the C-terminal GSGC linker (Cys)
For B3, the Kd is 0.17 nM with human IL-23 [1], 0.0094 nM with human IL-23 [2], 0.27 nM in the assay with human IL-23 [4] and 0.051 nM with human IL-23 [5]. Besides, the koff with human IL-23 [1] was 2.5e-05 s⁻¹; with human IL-23 [4] it was 5.5e-05 s⁻¹. Also, the kon is 150000 M⁻¹ s⁻¹ with human IL-23 [1] and 203000 M⁻¹ s⁻¹ with human IL-23 [4]. Besides, the “IL-17 production by human T cells, EC50” value with human IL-23 [3] is 2 nM.

B4: SABA1.2 (designed binder)
chain: MGVSDVPRDLEVVAATPTSLLISWHSYYEQNSYYRITYGETGGNSPVQEFTVPYSQTTATISGLKPGVDYTITVYAVYGSKYYYPISINYRTEIEDEDEDEDED
notes: core 1 with (ED)5 extension
As to B4, the Kd with human serum albumin [6] was 41.9 nM; with rhesus serum albumin [7], 479 nM; with human serum albumin [8] it was 28.6 nM; with rhesus serum albumin [9], 359 nM; with human serum albumin [10], 24.1 nM; with rhesus serum albumin [11], 977 nM. The Kd came out at 55.3 nM with human serum albumin [12] and 580 nM in the assay with rhesus serum albumin [13]. Moreover, the koff in the assay with human serum albumin [6] stood at 0.000388 s⁻¹; in the assay with rhesus serum albumin [7], 0.00295 s⁻¹; in the assay with human serum albumin [8], 0.00027 s⁻¹; with rhesus serum albumin [9] it was 0.00272 s⁻¹; in the assay with human serum albumin [10], 0.000815 s⁻¹; in the assay with rhesus serum albumin [11] it was 0.0185 s⁻¹. In addition, the koff turned out to be 0.000443 s⁻¹ with human serum albumin [12] and 0.00378 s⁻¹ with rhesus serum albumin [13]. The kon turned out to be 9260 M⁻¹ s⁻¹ in the assay with human serum albumin [6]; 6160 M⁻¹ s⁻¹ with rhesus serum albumin [7]; 9440 M⁻¹ s⁻¹ in the assay with human serum albumin [8]; 7570 M⁻¹ s⁻¹ with rhesus serum albumin [9]; 33800 M⁻¹ s⁻¹ with human serum albumin [10]; 18900 M⁻¹ s⁻¹ with rhesus serum albumin [11]. For the same molecule, the kon came out at 8210 M⁻¹ s⁻¹ in the assay with human serum albumin [12] and 6600 M⁻¹ s⁻¹ with rhesus serum albumin [13]. Further, the binding result is recorded as “no binding (tested: 1 µM)” with rat serum albumin and “no binding (tested: up to 1 µM)” in the assay with murine serum albumin. For the same molecule, in the assay with human serum albumin [14], the “fold increase in affinity at 37 C against 25 C” value was approximately 2 fold. Further, the “affinity at 37 C relative to 25 C” value in the assay with rhesus serum albumin [15] was determined as 0.5 fold.
